These results are taken from patent US20240025971A1.

To fix the notation:
B1: AB-009231 (antibody, V domains shown)
VH: EVQLVESGGGLVQPGGSLRLSCAASGFTFSSYWMSWVRQAPGKGLEWVANIKQDGSEKYYVDSVKGRFTISRDNAKNSLYLQMNSLRAEDTAVYYCARVSMRFLEWSFYYYYYMDVWGKGTTVTVSS
VL: SSELTQDPAVSVALGQTVRITCQGDSLRSYYASWYQQKPGQAPVLVIYGKNNRPSGIPDRFSGSSSGNTASLTITGAQAEDEADYYCNSRDSSGNHLGVVFGGGTKLTVL
B2: AB-009244 (antibody, V domains shown)
VH: EVQLVESGGGLVQPGGSLRLSCAASGFAFNTYGINWVRQAPGKGLEWVSFISSRSTTIHYADSVRGRFTISRDNAKNSLYLQMNNLRDEDTAVYYCARDLLIWFGETGAFDIWGQGTMVTVSS
VL: EVVMTQSPATLSVSSGERVTLSCRASQSVSNNLAWYQQKPGQAPRLLIYGASTRATGFPARFSGSGSGTEFTLTISSLQSEDFAVYYCQQYNIWPPGTFGQGTKLEIK
B3: AB-009202 (antibody, V domains shown)
VH: QVQLVESGGGVVQPGRSLRLSCAASGFTFSSYGMHWVRQAPGKGLEWVAVIWYDGSNKYYADSVKGRFTISRDNSKNTLYLQMNSLRAEDTAVYYCARDGGPEYYFDYWGQGTLVTVSS
VL: SYELTQPPSVSVSPGQTARITCSGDALPKQYAYWYQQKPGQAPVLVIYKDSERPSGIPERFSGSSSGTTVTLTISGVQAEDEADYYCQSADSSGTYNVVFGGGTKLTVL
B4: AB-009627 (antibody, V domains shown)
VH: QVQLQQWGAGLLKPSETLSLTCAVYGGSFSGYYWSWIRQPPGKGLEWIGEINHSGSTNYNPSLKSRVTISVDTSKNQFSLKLSSVTAADTAVFYCARGGYSSSWYGEKYWFDPWGQGTLVTVSS
VL: QSALTQPRSVSGSPGQSVTISCTGTSSDVGGYNYVSWYQQHPGKAPKLMIYDVSKRPSGVPDRFSGSKSGNTASLTISGLQAEDEADYYCCSYAGSPYVFGTGTKVTVL
B5: AB-009108 (antibody, V domains shown)
VH: QVQLQESGPGLVKPSETLALTCTVSGDSIINNNFYWGWLRQPPGQGLEWIGSLFHTGSAYYNSSLKSRVRSSVDTARNQISLRLSSVTAADTAVYYCARVNIVSVPAPPGAIEGWFDPWGQGTRVTVSP
VL: SYELTQPPSVSVSLGQTARISCSGDALPTKYVHWYQQKAGQAPVVVIFRDTERPSEIPERFSGSSSGTTVTLTISGVQAEDEADYYCQSVDGSGFYVFGSGTKVTVL
B6: AB-009174 (antibody, V domains shown)
VH: QVQLQQWGAGLLKPSETLSLTCAVYGESFSGYYWNWIRQPPGKGLEWIGEIDQSGSTNYNPSLKSRVTISVDTSKNQFSLKLTSVTAADTAVYYCARVSGRMQLWLRAGYMDVWDKGTTVTVSS
VL: QSALTQPASVSGSPGQSITISCTGTSSDVGRYNYVSWYQQHPGKAPKLMIYEVSNRPSGVSNRFSGSKSGNTASLTISGLQAEDEADYYCSSYTTSSTRVFGGGTKLTVL
B7: AB-009237 (antibody, V domains shown)
VH: QVQLLQSGAEVKKPGASVSVSCKASGFTFTSYYFHWVRQAPGQGLEWMGIVSPAGGSTNYAQKFQGRVTMTRDTSTSTVHMELRNVRYDDTAVFYCARSVYCSSPSCPHGMDVWGPGTMVTVSS
VL: DIQVTQSPSTLSASVGDRVTITCRASQSILTYLAWYQQKPGKAPNLLIYKASNLQSGVPSRFSGSGSGTEFTLTISSLQPDDFATYHCQQYKSYPFSFGQGTKLAIK

The assay has as its target SARS-CoV-2 Spike (S) trimer (SARS-CoV-2), P0DTC2. Nature of the assay: ELISA, S trimer coated, 1:50 dilution. Particulars: remark: other sources report otherwise. Background: ELISA stands for enzyme-linked immunosorbent assay.
Molecule B1 registered an Optical Density (OD; 450 nm) of 0.46 OD450.
Next, B2: 0.239 OD450.
For B3, the Optical Density (OD; 450 nm) worked out at 1.99 OD450.
To B4 belongs 0.823 OD450.
Molecule B5 showed an Optical Density (OD; 450 nm) of 0.28 OD450.
Molecule B6 showed an Optical Density (OD; 450 nm) of 0.154 OD450.
For B7, the Optical Density (OD; 450 nm) is 0.228 OD450.
